One experiment addresses T1, FtsA WT (E. coli, UniProt P0ABH0 1-420, Cy3 or Cy5 at the N-terminus in the labelled form (CLEPTGG peptide labelled with sulfo-Cyanine 3- or 5-maleimide, conjugated to the 5xGly tag by sortagging; degree of labelling 65-70%); unlabelled …).
T1 construct: FtsA, E. coli, cloned into vector pMAR19; called full-length in the results; also called wild-type FtsA; Cy5-FtsA WT; source: E. coli BL21, purified (Strep-Tactin, SUMO tag cleaved with Ulp1, SEC); not shown: TwinStrep-SUMO, N-terminal, cleaved; 5xGlycine tag, N-terminal, kept
T1 sequence (looked up): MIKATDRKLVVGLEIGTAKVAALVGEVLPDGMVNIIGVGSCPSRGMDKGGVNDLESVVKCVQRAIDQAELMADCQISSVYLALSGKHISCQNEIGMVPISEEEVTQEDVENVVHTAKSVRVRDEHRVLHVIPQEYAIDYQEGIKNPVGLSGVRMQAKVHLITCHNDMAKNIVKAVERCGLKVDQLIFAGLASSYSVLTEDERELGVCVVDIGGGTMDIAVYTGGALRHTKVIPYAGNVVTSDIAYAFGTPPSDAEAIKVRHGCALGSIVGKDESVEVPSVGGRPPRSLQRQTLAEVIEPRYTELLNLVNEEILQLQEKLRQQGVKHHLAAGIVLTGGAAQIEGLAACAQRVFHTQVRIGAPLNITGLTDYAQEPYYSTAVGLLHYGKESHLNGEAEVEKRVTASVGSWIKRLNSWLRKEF
Put plainly: dual-colour TIRF microscopy on supported lipid bilayers; Cy5-FtsA WT or R286W (0.1-0.8 µM) and Alexa488-FtsZ (1.25 µM) on DOPC:DOPG bilayers; reaction buffer with 4 mM ATP, 4 mM GTP. The conditions noted are these: both partners purified.

The next experiment addresses T2, FtsA R286W (E. coli, UniProt P0ABH0 1-420, R286W, Cy3 or Cy5 at the N-terminus in the labelled form (labelled CLEPTGG peptide conjugated to the 5xGly tag by sortagging); unlabelled protein also used).
T2 construct: also called Cy5-FtsA R286W; hyperactive mutant; source: E. coli BL21, purified (as the wild type: Strep-Tactin, SUMO tag cleaved with Ulp1, SEC); not shown: TwinStrep-SUMO, N-terminal, cleaved; 5xGlycine tag, N-terminal, kept
T2 sequence (looked up): T1 sequence (looked up) with R286W
The description is as above. The conditions noted are these: both partners purified.

Another experiment addresses T3, FtsA WT (1-405)-6xHis (E. coli, UniProt P0ABH0 1-405, Cy3 or Cy5 at the N-terminus in the labelled form (sortagging as for native FtsA)).
T3 construct: FtsA, E. coli, residues 1-405; plasmid pNB4; Attached to membranes through Tris-NTA lipids by its His tag; also called FtsA-His6; FtsA WT-His6; source: E. coli BL21, purified (as native FtsA); not shown: TwinStrep-SUMO, N-terminal, cleaved; 5xGlycine tag, N-terminal, kept; His6, C-terminal, kept
T3 sequence (looked up): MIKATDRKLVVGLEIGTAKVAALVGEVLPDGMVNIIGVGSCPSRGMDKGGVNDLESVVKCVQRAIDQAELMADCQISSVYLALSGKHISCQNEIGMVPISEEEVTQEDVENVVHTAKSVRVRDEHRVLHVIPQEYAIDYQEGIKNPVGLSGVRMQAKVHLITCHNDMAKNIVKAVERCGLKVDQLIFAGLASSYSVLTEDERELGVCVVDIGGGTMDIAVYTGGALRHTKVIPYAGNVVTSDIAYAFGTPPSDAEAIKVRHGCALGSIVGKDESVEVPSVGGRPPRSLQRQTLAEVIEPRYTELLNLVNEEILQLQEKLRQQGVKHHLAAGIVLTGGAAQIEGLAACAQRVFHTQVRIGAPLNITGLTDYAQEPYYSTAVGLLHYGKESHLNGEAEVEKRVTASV
Description: dual-colour TIRF microscopy on supported lipid bilayers; Cy5-labelled His-tagged FtsA (0.5-1 µM, washed) attached to bilayers with varied Tris-NTA lipid density; 1.25 µM Alexa488-FtsZ added. The conditions noted are these: both partners purified.

The target in the next experiment is T4, FtsA R286W (1-405)-6xHis (E. coli, UniProt P0ABH0 1-405, R286W, Cy3 or Cy5 at the N-terminus in the labelled form (sortagging as for native FtsA)).
T4 construct: FtsA, E. coli, residues 1-405 with R286W; the C-terminal amphipathic helix replaced by a 6xHistidine tag; plasmid pNB5; Attached to membranes through Tris-NTA lipids by its His tag; also called FtsA R286W-His6; R286W-His6; source: E. coli BL21, purified (as native FtsA); not shown: TwinStrep-SUMO, N-terminal, cleaved; 5xGlycine tag, N-terminal, kept; His6, C-terminal, kept
T4 sequence (looked up): T3 sequence (looked up) with R286W
Described as above. The conditions noted are these: both partners purified.

The next experiment relates to FtsA. The conditions noted are these: Fig. S2f, intensity after FtsNcyto addition. The method, then: Subsequently, the chamber was washed 6x with reaction buffer, to remove bulk peptide. To visualize colocalization with either FtsZ or FtsA, either a mix of FtsA and Alexa488-FtsZ or Cy3-FtsA and FtsZ was added. […] The time-lapse videos were recorded for 10 min after the addition, with one frame per 2 s.
Time-lapse videos were first intensity-corrected and contrast-enhanced to avoid bleaching effects and simplify subsequent analysis. To remove contributions of X–Y drift, the videos were processed with the Linear Stack Alignment with SIFT plugin. Proper alignment was checked with the 3TP align plugin (J. A. Parker; Beth Israel Deaconess Medical Center, Boston). Subsequently, regions of interest (ROIs) in the center of the stacks were chosen for colocalization analysis. The Pearson’s correlation coefficient (PCC) was quantified with the Image CorrelationJ 1o plugin. To extract information about the relative ratio of FtsZ/FtsA molecules (slope of linear regression), we also used the Image CorrelationJ 1o plugin. As an output, the plugin provides a scatterplot of FtsZ vs FtsA intensities, to which we fitted a linear slope y=k⋅x+d , where k is the slope and d the offset. The slope was used as an estimate for the ratio of FtsA molecules below FtsZ filaments.

In a further experiment the test system is FtsZ. The conditions noted are these: with FtsNcyto-His and His-tagged FtsA.

Where a chain is given by its changes, count along the chain named. Like-named read-outs stand apart in the source and are kept apart here.

B1: FtsZ (natural protein, E. coli, UniProt P0A9A6 1-383, looked up)
chain: MFEPMELTNDAVIKVIGVGGGGGNAVEHMVRERIEGVEFFAVNTDAQALRKTAVGQTIQIGSGITKGLGAGANPEVGRNAADEDRDALRAALEGADMVFIAAGMGGGTGTGAAPVVAEVAKDLGILTVAVVTKPFNFEGKKRMAFAEQGITELSKHVDSLITIPNDKLLKVLGRGISLLDAFGAANDVLKGAVQGIAELITRPGLMNVDFADVRTVMSEMGYAMMGSGVASGEDRAEEAAEMAISSPLLEDIDLSGARGVLVNITAGFDLRLDEFETVGNTIRAFASDNATVVIGTSLDPDMNDELRVTVVATGIGMDKRPEITLVTNKQVQQPVMDRYQQHGMAPLTQEQKPVAKVVNDNAPQTAKEPDYLDIPAFLRKQAD
modifications: Alexa Fluor 488 C5 maleimide on the cysteine of the added N-terminal residues AEGCGEL in the labelled form; unlabelled FtsZ also used
notes: FtsZ, E. coli, cloned into a pTB146-derived vector; Present as GTP-dependent treadmilling filaments in the assays; also called Alexa488-FtsZ; FtsZ filaments; source: E. coli BL21, purified (Ni-NTA, His6-SUMO cleaved with Ulp1, polymerisation with CaCl2 and GTP); not shown: His6-SUMO, N-terminal, cleaved; seven residues AEGCGEL for maleimide coupling, N-terminal, kept
Take B1: the binding result in the experiment with FtsA WT, in the experiment with FtsA R286W, with FtsA WT (1-405)-6xHis and with FtsA R286W (1-405)-6xHis was “binds” each time.

B2: FtsZ: E. coli tubulin-like FtsZ forming treadmilling filaments; labelled with Alexa Fluor 488 (protein)
chain: B1 chain
modifications: Alexa Fluor 488 C5 maleimide on the cysteine of the added N-terminal residues AEGCGEL in the labelled form; unlabelled FtsZ also used; left off: His6-SUMO, N-terminal, cleaved | seven residues AEGCGEL
For the molecule B2, the “Mean Intensity Fold Change” value in the experiment with FtsA (0.10 µM) came to 1.36; with FtsA (0.20 µM), 1.60; in the experiment with FtsA (0.40 µM), 1.56. Further, the “mean recovery time of FtsZ” value in the experiment with FtsZ is “around 9.5 s”.

Values taken from article PMC9098913, “In vitro reconstitution of Escherichia coli divisome activation” (Nature Communications, 2022).
